For test [1], the target named is endogenous SNAP25 in total cell lysate. Put plainly: sandwich ELISA with total cell lysate, negative control.
Test [2] shares this target. The description is as above. This is another data set of the same source.
For test [3] the target is unchanged. The description is as above. The source holds these as a separate data set.
Test [4] has the same target. Description: sandwich ELISA with total cell lysate, positive control.
The target is the same in test [5]. The test is described as above. The source holds these as a separate data set.
The target is the same in test [6]. The description is as above. The source holds these as a separate data set.

Sequence of endogenous SNAP25 in total cell lysate (P60879 whole entry): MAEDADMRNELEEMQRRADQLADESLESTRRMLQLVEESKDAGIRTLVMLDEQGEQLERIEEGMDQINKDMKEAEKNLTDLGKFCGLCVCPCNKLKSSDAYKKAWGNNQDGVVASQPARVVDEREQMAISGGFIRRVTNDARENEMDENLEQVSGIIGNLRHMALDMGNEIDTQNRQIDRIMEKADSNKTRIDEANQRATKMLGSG

NC: the ELISA signal (A450) was 0.27 in test [1], 0.213 in test [2] and 0.125 in test [3].

Turning to PC, the ELISA signal (A450) in test [4] is 3.49; in test [5], 2.77; in test [6], 2.5.

The record behind these values is patent US20200173986A1.
